Paper PMC3143201 (Journal of molecular biology, 2011)

B1: human Hsp90α full-length protein with part of the charged linker between N and M removed (Hsp90Δ) (natural protein)
chain: not shown
B2: human Hsp90α MC two-domain construct (domain or fragment)
chain: not shown

Target: the molecule itself
Test: SEC

Protein	stoichiometry N
B1	2
B2	2
